Tests used:
[1] = target: T1, human MMP-12 catalytic domain mutant D4 (cdMMP-12 D4) (human); test: competitive ELISA: nTIMP-2 (0.8-200 µM) premixed with 500 nM Fab LH6 (the competitor displaced), added to immobilised cdMMP-12 D4, bound Fab detected with anti-Fab-HRP (OD450) [panel A, right]
T1 construct: PROSS-designed expression-optimised mutant; Cytoplasmically expressed in E. coli, purified on Ni-NTA; biotinylated for ELISA/BLI; also called cdMMP-12 mutant D4; modified D4
Protocol: (§1) On streptavidin coated ELISA plates, 5 μg/mL biotinylated cdMMPs were immobilized and incubated with two-fold serially diluted purified Fabs. Bound Fabs were detected with anti-Fab-HRP (Sigma-Aldrich), and signals were developed by TMB substrate (Thermo Scientific) and measured using a microplate reader (BioTek). […] Bound Fabs were detected using anti-Fab-HRP.

[2] = target: T1, human MMP-12 catalytic domain mutant D4 …; test: competitive ELISA: nTIMP-2 (0.8-200 µM) premixed with 500 nM Fab LG4 (the competitor displaced), added to immobilised cdMMP-12 D4, bound Fab detected with anti-Fab-HRP (OD450) [panel A, right]
Protocol: as §1

[3] = target: T1, human MMP-12 catalytic domain mutant D4 …; test: competitive ELISA: nTIMP-2 (0.8-200 µM) premixed with 500 nM Fab LH11 (the competitor displaced), added to immobilised cdMMP-12 D4, bound Fab detected with anti-Fab-HRP (OD450) [panel A, right]
Protocol: as §1

[4] = target: T2, human MMP-12 catalytic domain wild type (cdMMP-12 wt) (human, UniProt P39900 106-263); test: competitive ELISA: nTIMP-2 (0.8-200 µM) premixed with 500 nM Fab LH11 (the competitor displaced), added to immobilised cdMMP-12 wt, bound Fab detected with anti-Fab-HRP (OD450) [panel B, right]
T2 construct: biotinylated for ELISA/BLI; also called wt cdMMP-12; cdMMP-12 wide-type
T2 sequence (P39900 other isoform, or with tags, fused parts or gaps limits assumed): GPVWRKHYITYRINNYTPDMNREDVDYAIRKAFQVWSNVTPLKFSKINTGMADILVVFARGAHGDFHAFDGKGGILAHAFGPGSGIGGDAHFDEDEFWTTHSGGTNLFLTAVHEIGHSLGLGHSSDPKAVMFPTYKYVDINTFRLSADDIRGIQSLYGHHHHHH
Protocol: as §1

[5] = target: T2, human MMP-12 catalytic domain wild type …; test: competitive ELISA: nTIMP-2 (0.8-200 µM) premixed with 500 nM Fab LG4 (the competitor displaced), added to immobilised cdMMP-12 wt, bound Fab detected with anti-Fab-HRP (OD450) [panel B, right]
Protocol: as §1

[6] = target: T2, human MMP-12 catalytic domain wild type …; test: competitive ELISA: nTIMP-2 (0.8-200 µM) premixed with 500 nM Fab LH6 (the competitor displaced), added to immobilised cdMMP-12 wt, bound Fab detected with anti-Fab-HRP (OD450) [panel B, right]
Protocol: as §1

[7] = target: T2, human MMP-12 catalytic domain wild type …; test: BLItz bio-layer interferometry; printed as 'Affinity ... (nM)'
[8] = target: T3, catalytic domain of human MMP-14 (cdMMP-14) (human, UniProt P50281 114-320); test: bio-layer interferometry (ForteBio), biotinylated protease on streptavidin biosensor, Fab in solution [panel 2D9]
T3 construct: range 114-320; Produced active in E. coli periplasm; biotinylated for BLI/ELISA
Protocol: (§2) Binding kinetics of produced antibodies towards associated protease targets were analyzed by using biolayer interferometry (ForteBio). For Fabs, biotinylated proteases were immobilized on streptavidin biosensors, and Fab binding to the sensors in absence of protease was monitored as backgrounds.

[9] = target: T3, catalytic domain of human MMP-14 …; test: FRET peptide inhibition assay; KI=IC50/(S/Km+1)
Protocol: (§3) For inhibition tests, 1 μM Fabs were 2-fold serially diluted into protease specific assay buffer and incubated with 1-10 nM proteases for 30 min at room temperature. […] Inhibition percentages at given concentrations were calculated by comparing the initial reaction rates in the presence or absence of inhibitor. […] Vₘₐₓ and Kₘ at various Fab concentrations were measured to determine the inhibition type. FRET inhibition assays were also used for selectivity tests of isolated Fabs with the relevant proteases.

[10] = target: T3, catalytic domain of human MMP-14 …; test: enzyme inhibition assay with FRET peptide substrate (M-2350), Fab titrated on cdMMP-14 [panel 2D9]
Protocol: as §3

[11] = target: T3, catalytic domain of human MMP-14 …; test: biolayer interferometry; biotinylated protease on streptavidin sensor, Fab in solution
Protocol: as §2

[12] = target: T3, catalytic domain of human MMP-14 …; test: bio-layer interferometry (ForteBio), biotinylated protease on streptavidin biosensor, Fab in solution [panel 2B10]
Protocol: as §2

[13] = target: T3, catalytic domain of human MMP-14 …; test: enzyme inhibition assay with FRET peptide substrate (M-2350), Fab titrated on cdMMP-14 [panel 2B10]
Protocol: as §3

[14] = target: T3, catalytic domain of human MMP-14 …; test: enzyme inhibition assay with FRET peptide substrate (M-2350), Fab titrated on cdMMP-14 [panel 2A6]
Protocol: as §3

[15] = target: T3, catalytic domain of human MMP-14 …; test: bio-layer interferometry (ForteBio), biotinylated protease on streptavidin biosensor, Fab in solution [panel 2A6]
Protocol: as §2

[16] = target: T4, Aspergillus fumigatus autophagic serine protease 2 (Alp2) (Aspergillus fumigatus, UniProt P87184 136-495); test: enzyme inhibition assay with FRET peptide substrate (Mca-[..](Dnp)), Fab titrated on Alp2 [panel A4A2]
T4 construct: range 136-495; Produced active in E. coli periplasm; biotinylated for BLI
T4 sequence: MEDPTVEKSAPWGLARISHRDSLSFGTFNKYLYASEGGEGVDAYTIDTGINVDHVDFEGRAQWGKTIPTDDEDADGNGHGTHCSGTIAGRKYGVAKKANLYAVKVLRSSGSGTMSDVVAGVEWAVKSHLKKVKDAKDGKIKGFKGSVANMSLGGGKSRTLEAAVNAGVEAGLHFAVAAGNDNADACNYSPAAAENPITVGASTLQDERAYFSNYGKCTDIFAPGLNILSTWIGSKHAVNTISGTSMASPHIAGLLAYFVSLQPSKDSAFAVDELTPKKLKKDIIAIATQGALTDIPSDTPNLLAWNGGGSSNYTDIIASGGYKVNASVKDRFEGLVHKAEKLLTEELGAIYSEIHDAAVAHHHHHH
Protocol: as §3

[17] = target: T4, Aspergillus fumigatus autophagic serine …; test: enzyme inhibition assay with FRET peptide substrate, Fab titrated on Alp2 [panel B]
Protocol: as §3

T1 sequence (chain, as listed by the source mutant limits assumed): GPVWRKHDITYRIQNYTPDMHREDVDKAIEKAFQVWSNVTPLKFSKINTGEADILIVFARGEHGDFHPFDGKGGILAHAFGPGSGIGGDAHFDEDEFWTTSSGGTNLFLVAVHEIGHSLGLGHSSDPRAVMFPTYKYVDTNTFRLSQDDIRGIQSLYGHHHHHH

B1: N-terminal domain of tissue inhibitor of metalloproteinases 2 (nTIMP-2) (other, UniProt P16035 27-153, looked up)
chain: CSCSPVHPQQAFCNADVVIRAKAVSEKEVDSGNDIYGNPIKRIQYEIKQIKMFKGPEKDIEFIYTAPSSAVCGVSLDVGGKKEYLIAGKAEGDGKMHITLCDFIVPWDTLSTTQKKSLNHRYQMGCE
notes: domain: N-terminal domain; Periplasmically expressed and purified as reported elsewhere
Work on B1 yielded an EC50 [1] of 23000 nM, an EC50 [2] of 42000 nM and an EC50 [3] of 18000 nM. The EC50 [4] was 26000 nM, the EC50 [5] was 44000 nM and the EC50 [6] was 32000 nM. For the same binder, the Kd [7] was 150 nM.

B2: anti-MMP-14 Fab 2D9 (Fab, V domains shown)
VH: EVQLVESGGGLVQPGGSLRLSCAASGFNISSSSMHWVRQAPGKGLEWVASIYPYYGYTYYADSVKGRFTISADTSKNTAYLQMNSLRAEDTAVYYCARGVTRFTNDASVGQVWAGAYGMDYWGQGTLVTVSS
VL: DIQMTQSPSSLSASVGDRVTITCRASQSVSSAVAWYQQKPGKAPKLLIYSASSLYSGVPSRFSGSRSGTDFTLTISSLQPEDFATYYCQQSSYSLITFGQGTKVEIKR
notes: Fab from a synthetic human Fab library, produced in E. coli periplasm; also called Clone 2D9
B2 was tested, and the koff [8] was 0.0039 s⁻¹, the kon [8] was 15000 M⁻¹ s⁻¹ and the Ki [9] was 230 nM. For the same binder, the IC50 [10] was 260 nM and the Kd [11] was 260 nM.

B3: anti-MMP-14 Fab 2B10 (Fab, V domains shown)
VH: EVQLVESGGGLVQPGGSLRLSCAASGFNIYYSYMHWVRQAPGKGLEWVASIYPSYGYTYYADSVKGRFTISADTSKNTAYLQMNSLRAEDTAVYYCARQLFACWRQSILTPPLLSAMMMGYAMDYWGQGTLVTVSS
VL: DIQMTQSPSSLSASVGDRVTITCRASQSVSSAVAWYQQKPGKAPKLLIYSASSLYSGVPSRFSGSRSGTDFTLTISSLQPEDFATYYCQQYSVAYVWLITFGQGTKVEIKR
notes: Fab from a synthetic human Fab library, produced in E. coli periplasm; also called Clone 2B10
Work on B3 yielded a Ki [9] of 210 nM, a koff [12] of 0.0018 s⁻¹ and a kon [12] of 40000 M⁻¹ s⁻¹. The Kd [11] was 46 nM and the IC50 [13] was 240 nM.

B4: anti-MMP-14 Fab 2A6 (Fab, V domains shown)
VH: EVQLVESGGGLVQPGGSLRLSCAASGFNFSSSSIHWVRQAPGKGLEWVASISSSYGYTYYADSVKGRFTISADTSKNTAYLQMNSLRAEDTAVYYCARVVRMLPVRCIPRCIKTTLPLYGMDYWGQGTLVTVSS
VL: DIQMTQSPSSLSASVGDRVTITCRASQSVSSAVAWYQQKPGKAPKLLIYSASSLYSGVPSRFSGSRSGTDFTLTISSLQPEDFATYYCQQSSFPFTFGQGTKVEIKR
notes: Fab from a synthetic human Fab library, produced in E. coli periplasm; also called Clone 2A6
With B4 the IC50 [14] was 480 nM, the Ki [9] was 430 nM and the koff [15] was 0.003 s⁻¹. For the same binder, the kon [15] was 24000 M⁻¹ s⁻¹ and the Kd [11] was 130 nM.

B5: anti-Alp2 Fab A4A2 (Fab, V domains shown)
VH: EVQLVESGGGLVQPGGSLRLSCAASGFNLSSSSMHWVRQAPGKGLEWVASIYPSYSYTYYADSVKGRFTISADTSKNTAYLQMNSLRAEDTAVYYCARKTSDQYLLVGGSFFKLRDCCYVMDYWGQGTLVTVSS
VL: DIQMTQSPSSLSASVGDRVTITCRASQSVSSAVAWYQQKPGKAPKLLIYSASSLYSGVPSRFSGSRSGTDFTLTISSLQPEDFATYYCQQASHLITFGQGTKVEIKR
notes: Fab from a synthetic human Fab library, produced in E. coli periplasm; also called Clone A4A2
B5 gave an IC50 [16] of 250 nM.

B6: anti-Alp2 Fab A4A1 (Fab, V domains shown)
VH: EVQLVESGGGLVQPGGSLRLSCAASGFNISSYYIHWVRQAPGKGLEWVASIYSYSSYTYYADSVKGRFTISADTSKNTAYLQMNSLRAGDTAVYYCARFGSWSYAIDYWGQGTLVTVSS
VL: DIQMTQSPSSLSASVGDRVTITCRASQSVSSAVAWYQQKPGKAPKLLIYSASSLYSGVPSRFSGSRSGTDFTLTISSLQPEDFATYYCQQASHLITFGQGTKVEIKR
notes: Fab from a synthetic human Fab library, produced in E. coli periplasm; also called Clone A4A1
B6 was tested, and the IC50 [17] was 15 nM.

Reference: US20200392251A1 (University of California, published 2020)
